Assay results taken from PMC3060825, “Structure and Function of the First Full-Length Murein Peptide Ligase (Mpl) Cell Wall Recycling Protein” (PLoS ONE, 2011).

Legend:
[1] = target: murein peptide ligase (Mpl) from Psychrobacter arcticus 273-4 (Psychrobacter arcticus 273-4); assay: SEC; elution of the same Superdex 200 run (refractive index trace) compared with the BioRad gel filtration standard (158, 44 and 17 kDa)
[2] = target: murein peptide ligase (Mpl) from Psychrobacter arcticus 273-4 (Psychrobacter arcticus 273-4); assay: SEC-MALS; SEC/SLS: 1x30 cm Superdex 200 coupled with miniDAWN static light scattering and Optilab differential refractive index detectors; 20 mM Tris-HCl pH 8.0, 150 mM sodium chloride, 0.02% sodium azide; molecular weight by ASTRA 5.1.5
[3] = target: the molecule itself; assay: SEC; 100 µl of 1.3 mg of EcMpl on Superdex 200 10/300 GL; 20 mM potassium phosphate pH 7.4, 0.15 mM NaCl, 0.01% 2-mercaptoethanol; 0.5 ml/min, detection at 280 nm
purified protein [4] = substrate: CC(=O)N[C@H]1[C@@H](OP(=O)(O)OP(=O)(O)OC[C@H]2O[C@@H](n3ccc(=O)[nH]c3=O)[C@H](O)[C@@H]2O)O[C@H](CO)[C@@H](O)[C@@H]1O[C@H](C)C(=O)O; assay: purified protein; format: biochemical, Psychrobacter arcticus; conditions: 5 mM ATP, 0.25 mM L-Ala-γ-D-Glu-meso-A2pm, 5 mM MgCl2, pH 8.4, 30 min, labelled compound
purified protein [5] = substrate: Nc1ncnc2c1ncn2[C@@H]1O[C@H](COP(=O)(O)OP(=O)(O)OP(=O)(O)O)[C@@H](O)[C@H]1O; assay: purified protein; format: biochemical, Psychrobacter arcticus; conditions: 0.4 mM UDP-MurNAc, 0.25 mM L-Ala-γ-D-Glu-meso-A2pm, 5 mM MgCl2, pH 8.4, 30 min

Work on “murein peptide ligase (Mpl) from Psychrobacter arcticus 273-4 (enzyme)” yielded a stoichiometry N [1] of 4 and a stoichiometry N [2] of 2.09.

B1: Mpl from Escherichia coli (enzyme, UniProt P37773 1-457, looked up)
chain: MRIHILGICGTFMGGLAMLARQLGHEVTGSDANVYPPMSTLLEKQGIELIQGYDASQLEPQPDLVIIGNAMTRGNPCVEAVLEKNIPYMSGPQWLHDFVLRDRWVLAVAGTHGKTTTAGMATWILEQCGYKPGFVIGGVPGNFEVSAHLGESDFFVIEADEYDCAFFDKRSKFVHYCPRTLILNNLEFDHADIFDDLKAIQKQFHHLVRIVPGQGRIIWPENDINLKQTMAMGCWSEQELVGEQGHWQAKKLTTDASEWEVLLDGEKVGEVKWSLVGEHNMHNGLMAIAAARHVGVAPADAANALGSFINARRRLELRGEANGVTVYDDFAHHPTAILATLAALRGKVGGTARIIAVLEPRSNTMKMGICKDDLAPSLGRADEVFLLQPAHIPWQVAEVAEACVQPAHWSGDVDTLADMVVKTAQPGDHILVMSNGGFGGIHQKLLDGLAKKAEAAQ
notes: Mpl (murein peptide ligase, UDP-MurNAc:L-Ala-gamma-D-Glu-meso-A2pm ligase), Escherichia coli; also called EcMpl; E. coli ortholog
With B1 the “stoichiometry N” value [3] was 2.

B2: PaMpl (Psychrobacter arcticus 273-4) (protein)
chain: MHIHILGICGTFMGSLALLARALGHTVTGSDANIYPPMSTQLEQAGVTIEEGYLIAHLQPAPDLVVVGNAMKRGMDVIEYMLDTGLRYTSGPQFLSEQVLQSRHVIAVAGTHGKTTTTTMLAWILHYAGIDAGFLIGGVPLVNTTDTNLQQVFAHSSYLGTEKDDSDNSVNTGYFVIEADEYDSAFFDKRSKFVHYRPRTAILNNLEFDHADIFADLDAIQTQFHHMVRMIPSTGKIIMPAATISLEDTLAKGVWTPIWRTSVIDSTISSVRREDSPLENSQAENSSDWQAELISADGSQFTVSFNDNKEATALVNWSMSGLHNVNNALVAIAAAYNIGVSVKTACAALSAFAGIKRRMELIGDVNDILVFDDFAHHPTAITTTLDGAKKKLADRRLWAIIEPRSNTMKMGIHQDSLAQSATLADHTLWYEPTGLEWGLKEVIDNATIANPSIGSQQVLSSVDDIIKHICTHAKAGDAIVIMSNGGFEGIHQRLLTALGNIVAIL
notes: full length, 505 residues; N-terminal His6 tag (…) kept for kinetics; E. coli MLD2502 (delta mpl); 57,187 Da with tag; dimer in solution by light scattering
B2 showed a Km (purified protein [4]) of 1.00 ± 0.13 mM, a kcat (purified protein [4]) of 4.33 ± 0.333 s⁻¹ and a kcat/Km (purified protein [4]) of 4330 ± 650 M⁻¹ s⁻¹. For the same molecule, the Km (purified protein [5]) was 0.11 ± 0.05 mM, the kcat (purified protein [5]) was 4.33 ± 0.333 s⁻¹ and the kcat/Km (purified protein [5]) was 40000 ± 18300 M⁻¹ s⁻¹.
